± gives the standard error. Variants at the floor of the assay were thinned out.
B1: glmS ribozyme (parent)
chain: AUAAAAGCGCCAGAACUACAGAAAUGUAGUUGACGAGGAGGAGGUUUAUCGAAUUUUCGGCGGAUGCCUCCAAA

Tests used:
Conditions in all cases: with glucosamine-6-phosphate
[1] = variants of: B1; test: self-cleavage kobs at 40 uM GlcN6P; higher = faster cleavage; RNA array
Outline: (§1)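 Barcoded ribozyme variants on sequenced MiSeq chips were transcribed in situ by E. coli RNA polymerase and followed at 37 °C through a hybridised Cy3 probe. Glucosamine-6-phosphate at 40 μM to 10 mM in HEPES/KCl/Mg(OAc)2 buffer was flowed in, and tiles were imaged over ~14 h. Signals were normalised to baseline and to non-cleaving reference variants, and per-tile medians were fit to one- or two-exponential decays to give kobs. Weighted Michaelis–Menten fits across concentrations gave kcat and KM.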

[2] = variants of: B1; test: self-cleavage kobs at 160 uM GlcN6P; higher = faster cleavage; RNA array
Outline: as §1

[3] = variants of: B1; test: self-cleavage kobs at 640 uM GlcN6P; higher = faster cleavage; RNA array
Outline: as §1

[4] = variants of: B1; test: self-cleavage kobs at 2500 uM GlcN6P; higher = faster cleavage; RNA array
Outline: as §1

[5] = variants of: B1; test: self-cleavage kobs at 10000 uM GlcN6P; higher = faster cleavage; RNA array
Outline: as §1

## AUAAAAGCGCCAGAACUACAGAAAUGUAGUUGACGAGGUGGAGGUUUAUCGAAUUUUCGGAGGAUGCCUCCAAA [A39U C61A]
[1]
  self-cleavage kobs at 40 uM GlcN6P: < 1e-05 s⁻¹
[2]
  self-cleavage kobs at 160 uM GlcN6P: < 1e-05 s⁻¹
[3]
  self-cleavage kobs at 640 uM GlcN6P: < 1e-05 s⁻¹
[4]
  self-cleavage kobs at 2500 uM GlcN6P: < 1e-05 s⁻¹
[5]
  self-cleavage kobs at 10000 uM GlcN6P: < 1e-05 s⁻¹

## AUAAAAGCGCCAGAACUACAGAAAUGUAGUUGACGAGGGGGAGGUUUAUCGAAUUCUCGGCGGAUGCCUCUAAA [A39G U56C C71U]
[1]
  self-cleavage kobs at 40 uM GlcN6P: 7.63e-05 ± 2.3e-05 s⁻¹

## AUAAAAGCGCCAGAACUACAGAAAUGUAGUUGACGAGGAAGAGGUUUAUCGACUUUUCGGCUGAUGCCUCCAAA [G40A A53C G62U]
[1]
  self-cleavage kobs at 40 uM GlcN6P: < 1e-05 s⁻¹
[5]
  self-cleavage kobs at 10000 uM GlcN6P: < 1e-05 s⁻¹

## AUAAAAGCGCCAGAACUACAGAAAUGUAGUUGACGAGGGGGAGGUUUAUCGAAUUUUCGGUGGAUGCCUCCAAA [A39G C61U]
[1]
  self-cleavage kobs at 40 uM GlcN6P: < 1e-05 s⁻¹
[5]
  self-cleavage kobs at 10000 uM GlcN6P: 3.27e-05 ± 1.1e-05 s⁻¹

## AUAAAAGCGCCAGAACUACAGAAAUGUAGUUGACGAGGAAGAGGUUUAUCGAAUUUUCGGCGGAUGCAUCCAAA [G40A C68A]
[1]
  self-cleavage kobs at 40 uM GlcN6P: < 1e-05 s⁻¹
[2]
  self-cleavage kobs at 160 uM GlcN6P: < 1e-05 s⁻¹
[3]
  self-cleavage kobs at 640 uM GlcN6P: < 1e-05 s⁻¹
[4]
  self-cleavage kobs at 2500 uM GlcN6P: < 1e-05 s⁻¹
[5]
  self-cleavage kobs at 10000 uM GlcN6P: < 1e-05 s⁻¹

## AUAAAAGCGCCAGAACUACAGAAAUGUAGUUGACGAGGUGGAGGUUUAUCGAAUUUUCGUCGGAUGCCUCCAAA [A39U G60U]
[1]
  self-cleavage kobs at 40 uM GlcN6P: < 1e-05 s⁻¹
[2]
  self-cleavage kobs at 160 uM GlcN6P: < 1e-05 s⁻¹
[3]
  self-cleavage kobs at 640 uM GlcN6P: < 1e-05 s⁻¹
[5]
  self-cleavage kobs at 10000 uM GlcN6P: < 1e-05 s⁻¹

## AUAAAAGCGCCAGAACUACAGAAAUGUAGUUGACGAGGUGGAGGUUUAUCGAAUUUUCGCCGGAUGCCUCCAAA [A39U G60C]
[1]
  self-cleavage kobs at 40 uM GlcN6P: < 1e-05 s⁻¹
[2]
  self-cleavage kobs at 160 uM GlcN6P: < 1e-05 s⁻¹
[4]
  self-cleavage kobs at 2500 uM GlcN6P: < 1e-05 s⁻¹
[5]
  self-cleavage kobs at 10000 uM GlcN6P: < 1e-05 s⁻¹

## AUAAAAGCGCCAGAACUACAGAAAUGUAGUUGACGAGGUGGAAGUUUAUUGAAUUUUCGGCGGAUGCCUCCAAA [A39U G43A C50U]
[1]
  self-cleavage kobs at 40 uM GlcN6P: < 1e-05 s⁻¹

## AUAAAAGCGCCAGAACUACAGAAAUGUAGUUGACGAGGGGGAGGUUUAUCGAAUUUUCGGCGGAUGCCACCAAA [A39G U69A]
[1]
  self-cleavage kobs at 40 uM GlcN6P: 8.49e-05 ± 1.6e-05 s⁻¹
[2]
  self-cleavage kobs at 160 uM GlcN6P: 9.95e-05 ± 2.2e-05 s⁻¹
[3]
  self-cleavage kobs at 640 uM GlcN6P: 0.000395 ± 6.6e-05 s⁻¹
[4]
  self-cleavage kobs at 2500 uM GlcN6P: 0.000452 ± 0.00012 s⁻¹
[5]
  self-cleavage kobs at 10000 uM GlcN6P: 0.000139 ± 2.2e-05 s⁻¹

## AUAAAAGCGCCAGAACUACAGAAAUGUAGUUGACGAGGUGGGGGUUUAUCGAAUUUUCGGCGGAAGCCUCCAAA [A39U A42G U65A]
[1]
  self-cleavage kobs at 40 uM GlcN6P: 4.73e-05 ± 1.7e-05 s⁻¹
[5]
  self-cleavage kobs at 10000 uM GlcN6P: 0.00165 ± 0.00027 s⁻¹

## AUAAAAGCGCCAGAACUACAGAAAUGUAGUUGACGAGGGGGAGGUUUAUCUAAUUUUCGGCGGAUGCCUCCAAA [A39G G51U]
[1]
  self-cleavage kobs at 40 uM GlcN6P: < 1e-05 s⁻¹
[2]
  self-cleavage kobs at 160 uM GlcN6P: < 1e-05 s⁻¹
[3]
  self-cleavage kobs at 640 uM GlcN6P: < 1e-05 s⁻¹
[4]
  self-cleavage kobs at 2500 uM GlcN6P: < 1e-05 s⁻¹
[5]
  self-cleavage kobs at 10000 uM GlcN6P: < 1e-05 s⁻¹

## AUAAAAGCGCCAGAACUACAGAAAUGUAGUUGACGAGGGGGAUUUUUAUCGAAUGUUCGGCGGAUGCCUCCAAA [A39G G43U G44U U55G]
[1]
  self-cleavage kobs at 40 uM GlcN6P: < 1e-05 s⁻¹
[3]
  self-cleavage kobs at 640 uM GlcN6P: < 1e-05 s⁻¹
[4]
  self-cleavage kobs at 2500 uM GlcN6P: < 1e-05 s⁻¹
[5]
  self-cleavage kobs at 10000 uM GlcN6P: < 1e-05 s⁻¹

## AUAAAAGCGCCAGAACUACAGAAAUGUAGUUGACGAGGCGGAGCUUUAUCGAAUUUUCGGCGGACGCCUCCAAA [A39C G44C U65C]
[1]
  self-cleavage kobs at 40 uM GlcN6P: < 1e-05 s⁻¹

## AUAAAAGCGCCAGAACUACAGAAAUGUAGUUGACGAGGGGGAGGUUUAUCGAAUUUUCGGCGGAUGCCUCGAAA [A39G C71G]
[1]
  self-cleavage kobs at 40 uM GlcN6P: 0.000215 ± 2.7e-05 s⁻¹
[2]
  self-cleavage kobs at 160 uM GlcN6P: 0.000373 ± 6.9e-05 s⁻¹
[3]
  self-cleavage kobs at 640 uM GlcN6P: 0.000657 ± 8.3e-05 s⁻¹
[4]
  self-cleavage kobs at 2500 uM GlcN6P: 0.00189 ± 0.00037 s⁻¹
[5]
  self-cleavage kobs at 10000 uM GlcN6P: 0.00538 ± 0.0012 s⁻¹

## AUAAAAGCGCCAGAACUACAGAAAUGUAGUUGACGAGGUGGAGGUUUAUCGAAAUUUCGGCGGAUGCCUCCAAA [A39U U54A]
[1]
  self-cleavage kobs at 40 uM GlcN6P: 0.000568 ± 6.6e-05 s⁻¹
[3]
  self-cleavage kobs at 640 uM GlcN6P: 0.00339 ± 0.00076 s⁻¹

## AUAAAAGCGCCAGAACUACAGAAAUGUAGUUGACGAGGCGGAGGUUUAUCGAACUUUCGGCGGCUGCCUCCAAA [A39C U54C A64C]
[1]
  self-cleavage kobs at 40 uM GlcN6P: < 1e-05 s⁻¹

## AUAAAAGCGCCAGAACUACAGAAAUGUAGUUGACGAGGUCGAUGUUUAUCGAAUUUUCGGCGGAUGCCUCCAAA [A39U G40C G43U]
[1]
  self-cleavage kobs at 40 uM GlcN6P: < 1e-05 s⁻¹
[5]
  self-cleavage kobs at 10000 uM GlcN6P: < 1e-05 s⁻¹

## AUAAAAGCGCCAGAACUACAGAAAUGUAGUUGACGAGGGGGAGGUUUAUCGAAUUUUCGGCGGAUGCCUUCAAA [A39G C70U]
[1]
  self-cleavage kobs at 40 uM GlcN6P: 0.00118 ± 0.00015 s⁻¹
[2]
  self-cleavage kobs at 160 uM GlcN6P: 0.0014 ± 0.0004 s⁻¹
[3]
  self-cleavage kobs at 640 uM GlcN6P: 0.00828 ± 0.0017 s⁻¹
[4]
  self-cleavage kobs at 2500 uM GlcN6P: 0.0127 ± 0.0053 s⁻¹
[5]
  self-cleavage kobs at 10000 uM GlcN6P: 0.022 ± 0.0045 s⁻¹

## AUAAAAGCGCCAGAACUACAGAAAUGUAGUUGACGAGGAAGAGGUUUAUCGAAUUUUCGGCGGAUGCCUCAAAA [G40A C71A]
[1]
  self-cleavage kobs at 40 uM GlcN6P: 0.00036 ± 4.6e-05 s⁻¹
[2]
  self-cleavage kobs at 160 uM GlcN6P: 0.000678 ± 0.00011 s⁻¹
[3]
  self-cleavage kobs at 640 uM GlcN6P: 0.00251 ± 0.00036 s⁻¹
[4]
  self-cleavage kobs at 2500 uM GlcN6P: 0.00849 ± 0.0017 s⁻¹
[5]
  self-cleavage kobs at 10000 uM GlcN6P: 0.0185 ± 0.0049 s⁻¹

## AUAAAAGCGCCAGAACUACAGAAAUGUAGUUGACGAGGGGGAGGUUUAUCCAAUUUUCGGCCGAUGCCUCCAAA [A39G G51C G62C]
[1]
  self-cleavage kobs at 40 uM GlcN6P: < 1e-05 s⁻¹
[5]
  self-cleavage kobs at 10000 uM GlcN6P: < 1e-05 s⁻¹

## AUAAAAGCGCCAGAACUACAGAAAUGUAGUUGACGAGGUGGAGGUUUAUCGAAUCUUCGGCGGAUGCCUCCAAA [A39U U55C]
[1]
  self-cleavage kobs at 40 uM GlcN6P: 0.000475 ± 4.6e-05 s⁻¹
[2]
  self-cleavage kobs at 160 uM GlcN6P: 0.00102 ± 0.00013 s⁻¹
[3]
  self-cleavage kobs at 640 uM GlcN6P: 0.00443 ± 0.00071 s⁻¹
[4]
  self-cleavage kobs at 2500 uM GlcN6P: 0.00902 ± 0.002 s⁻¹
[5]
  self-cleavage kobs at 10000 uM GlcN6P: 0.0244 ± 0.0038 s⁻¹

## AUAAAAGCGCCAGAACUACAGAAAUGUAGUUGACGAGGGGGAGGUUUACCGGAUUUUCGGCGUAUGCGUCCAAA [A39G U49C A52G G63U C68G]
[1]
  self-cleavage kobs at 40 uM GlcN6P: < 1e-05 s⁻¹

## AUAAAAGCGCCAGAACUACAGAAAUGUAGUUGACGAGGCGUAGGUUUAUCGAAUUUUCGGCGGAUGCCUCCAAA [A39C G41U]
[1]
  self-cleavage kobs at 40 uM GlcN6P: < 1e-05 s⁻¹
[2]
  self-cleavage kobs at 160 uM GlcN6P: < 1e-05 s⁻¹

## AUAAAAGCGCCAGAACUACAGAAAUGUAGUUGACGAGGGGGUGGUUUAUCGAAUUUACGGCGGAUGCCUCCAAA [A39G A42U U57A]
[1]
  self-cleavage kobs at 40 uM GlcN6P: < 1e-05 s⁻¹
[2]
  self-cleavage kobs at 160 uM GlcN6P: < 1e-05 s⁻¹

## AUAAAAGCGCCAGAACUACAGAAAUGUAGUUGACGAGGGGGCGGUUUAUCGAAUUUUCGGCGGAUGCCGACAAA [A39G A42C U69G C70A]
[1]
  self-cleavage kobs at 40 uM GlcN6P: < 1e-05 s⁻¹

Source: the supplement of paper PMC7125110
